# Source: IntAct's records for PubMed 31515488
# B1: NIF3-like protein 1 (Homo sapiens), Q9GZT8 (parent)
# chain: MLSSCVRPVPTTVRFVDSLICNSSRSFMDLKALLSSLNDFASLSFAESWDNVGLLVEPSPPHTVNTLFLTNDLTEEVMEEVLQKKADLILSYHPPIFRPMKRITWNTWKERLVIRALENRVGIYSPHTAYDAAPQGVNNWLAKGLGACTSRPIHPSKAPNYPTEGNHRVEFNVNYTQDLDKVMSAVKGIDGVSVTSFSARTGNEEQTRINLNCTQKALMQVVDFLSRNKQLYQKTEILSLEKPLLLHTGMGRLCTLDESVSLATMIDRIKRHLKLSHIRLALGVGRTLESQVKVVALCAGSGSSVLQGVEADLYLTGEMSHHDTLDAASQGINVILCEHSNTERGFLSDLRDMLDSHLENKINIILSETDRDPLQVV
# B2: Synaptotagmin-like protein 5 (Homo sapiens), Q8TDW5 (parent)
# chain: MSKNSEFINLSFLLDHEKEMILGVLKRDEYLKKVEDKRIRKLKNELLEAKRRSGKTQQEASRVCVHCHRNLGLIFDRGDPCQACSLRVCRECRVAGPNGSWKCTVCDKIAQLRIITGEWFFEEKAKRFKQVNVLGTDVVRQSILRRSPGAEEVQSQEQTRQDAEKSDTSPVAGKKASHDGPKRKGFLLSKFRSATRGEIITPKTDTGRSYSLDLDGQHFRSLKSPPGSDRGSTGSSDLNDQEPGPRTPKSSRSNGVTPGTQSSPAPSTRTVTSVISREYGFENSMDLAAIEGTSQELTKSHRRNTSGTPSIAVSGTSLSSDQSRSELDLSESFTEDSEDTVSIRSKSVPGALDKDSLEETEESIDALVSSQLSTNTHRLASGLSTTSLNSMMSVYSETGDYGNVKVSGEILLHISYCYKTGGLYIFVKNCRNLAIGDEKKQRTDAYVKSYLLPDKSRNNKRKTKIRTGTNPEFNETLKYTISHTQLETRTLQLSVWHYDRFGRNSFLGEVEIPFDSWNFENPTDEWFVLQPKVEFAPDIGLQYKGELTVVLRYIPPEENLMLPPEQLQGNKTFKKGKKKESPVISGGILEVFIKEAKNLTAVKSGGTSDSFVKGYLLPDDSKATKHKTLVIKKSVNPQWNHTFMFSGIHPQDIKNVCLELTIWDKEAFSSNIFLGGVRLNSGSGVSHGKNVDWMDSQGEEQRLWQKMANNPGTPFEGVLMLRSSMGKCRL
# partner: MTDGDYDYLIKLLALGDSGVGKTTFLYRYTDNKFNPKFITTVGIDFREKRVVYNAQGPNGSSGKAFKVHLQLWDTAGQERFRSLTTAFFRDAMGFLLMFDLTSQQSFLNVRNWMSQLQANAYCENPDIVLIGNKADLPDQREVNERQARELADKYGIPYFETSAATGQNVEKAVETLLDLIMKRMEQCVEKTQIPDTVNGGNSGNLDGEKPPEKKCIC
# B3: Macrophage scavenger receptor types I and II (Homo sapiens), P21757 (parent)
# chain: MEQWDHFHNQQEDTDSCSESVKFDARSMTALLPPNPKNSPSLQEKLKSFKAALIALYLLVFAVLIPLIGIVAAQLLKWETKNCSVSSTNANDITQSLTGKGNDSEEEMRFQEVFMEHMSNMEKRIQHILDMEANLMDTEHFQNFSMTTDQRFNDILLQLSTLFSSVQGHGNAIDEISKSLISLNTTLLDLQLNIENLNGKIQENTFKQQEEISKLEERVYNVSAEIMAMKEEQVHLEQEIKGEVKVLNNITNDLRLKDWEHSQTLRNITLIQGPPGPPGEKGDRGPTGESGPRGFPGPIGPPGLKGDRGAIGFPGSRGLPGYAGRPGNSGPKGQKGEKGSGNTLTPFTKVRLVGGSGPHEGRVEILHSGQWGTICDDRWEVRVGQVVCRSLGYPGVQAVHKAAHFGQGTGPIWLNEVFCFGRESSIEECKIRQWGTRACSHSEDAGVTCTL
# partner: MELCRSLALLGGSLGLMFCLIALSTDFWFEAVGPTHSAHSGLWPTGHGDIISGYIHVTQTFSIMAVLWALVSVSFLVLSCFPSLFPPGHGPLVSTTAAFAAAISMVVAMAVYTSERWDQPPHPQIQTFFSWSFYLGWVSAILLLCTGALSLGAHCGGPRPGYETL
# B4: Microtubule-associated tumor suppressor candidate 2 (Homo sapiens), Q5JR59-3 (parent)
# chain: MGHCCCKPYNCLQCLDKTNESALVKEKELSIELANIRDEVAFHTAKCEKLQKEKEELERRFEDEVKRLGWQQQAELQELEERLQLQFEAEMARLQEEHGDQLLSIRCQHQEQVEDLTASHDAALLEMENNHTVAITILQDDHDHKVQELMSTHELEKKELEENFEKLRLSLQDQVDTLTFQSQSLRDRARRFEEALRKNTEEQLEIALAPYQHLEEDMKSLKQVLEMKNQQIHEQEKKILELEKLAEKNIILEEKIQVLQQQNEDLKARIDQNTVVTRQLSEENANLQEYVEKETQEKKRLSRTNEELLWKLQTGDPTSPIKLSPTSPVYRGSSSGPSSPARVSTTPR
# partner: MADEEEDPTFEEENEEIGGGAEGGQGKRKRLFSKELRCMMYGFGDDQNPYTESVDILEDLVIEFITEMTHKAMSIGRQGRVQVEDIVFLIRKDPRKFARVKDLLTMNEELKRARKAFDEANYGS
# B5: Cyclin-dependent kinase 4 (Homo sapiens), P11802 (parent)
# chain: MATSRYEPVAEIGVGAYGTVYKARDPHSGHFVALKSVRVPNGGGGGGGLPISTVREVALLRRLEAFEHPNVVRLMDVCATSRTDREIKVTLVFEHVDQDLRTYLDKAPPPGLPAETIKDLMRQFLRGLDFLHANCIVHRDLKPENILVTSGGTVKLADFGLARIYSYQMALTPVVVTLWYRAPEVLLQSTYATPVDMWSVGCIFAEMFRRKPLFCGNSEADQLGKIFDLIGLPPEDDWPRDVSLPRGAFPPRGPRPVQSVVPEMEESGAQLLLEMLTFNPHKRISAFRALQHSYLHKDEGNPE
# partner: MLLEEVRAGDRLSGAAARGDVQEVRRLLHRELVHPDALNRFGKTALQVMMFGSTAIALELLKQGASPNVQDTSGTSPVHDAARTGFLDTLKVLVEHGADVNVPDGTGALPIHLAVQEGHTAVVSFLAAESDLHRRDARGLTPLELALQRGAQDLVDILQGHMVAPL
# B6: 14-3-3 protein theta (Homo sapiens), P27348 (parent)
# chain: MEKTELIQKAKLAEQAERYDDMATCMKAVTEQGAELSNEERNLLSVAYKNVVGGRRSAWRVISSIEQKTDTSDKKLQLIKDYREKVESELRSICTTVLELLDKYLIANATNPESKVFYLKMKGDYFRYLAEVACGDDRKQTIDNSQGAYQEAFDISKKEMQPTHPIRLGLALNFSVFYYEILNNPELACTLAKTAFDEAIAELDTLNEDSYKDSTLIMQLLRDNLTLWTSDSAGEECDAAEGAEN
# B7: Protein-lysine N-methyltransferase EEF2KMT (Homo sapiens), Q96G04 (parent)
# chain: MAPEENAGTELLLQSFERRFLAARTLRSFPWQSLEAKLRDSSDSELLRDILHKTVKHPVCVKHPPSVKYARCFLSELIKKHEAVHTEPLDELYEALAETLMAKESTQGHRSYLLPSGGSVTLSESTAIISYGTTGLVTWDAALYLAEWAIENPAVFTNRTVLELGSGAGLTGLAICKMCRPRAYIFSDCHSRVLEQLRGNVLLNGLSLEADITAKLDSPRVTVAQLDWDVATVHQLSAFQPDVVIAADVLYCPEAIMSLVGVLRRLAACREHQRAPEVYVAFTVRNPETCQLFTTELGRAGIRWEVEPRHEQKLFPYEEHLEMAMLNLTL
# B8: Cyclic AMP-dependent transcription factor ATF-2 (Homo sapiens), P15336 (parent)
# chain: MKFKLHVNSARQYKDLWNMSDDKPFLCTAPGCGQRFTNEDHLAVHKHKHEMTLKFGPARNDSVIVADQTPTPTRFLKNCEEVGLFNELASPFENEFKKASEDDIKKMPLDLSPLATPIIRSKIEEPSVVETTHQDSPLPHPESTTSDEKEVPLAQTAQPTSAIVRPASLQVPNVLLTSSDSSVIIQQAVPSPTSSTVITQAPSSNRPIVPVPGPFPLLLHLPNGQTMPVAIPASITSSNVHVPAAVPLVRPVTMVPSVPGIPGPSSPQPVQSEAKMRLKAALTQQHPPVTNGDTVKGHGSGLVRTQSEESRPQSLQQPATSTTETPASPAHTTPQTQSTSGRRRRAANEDPDEKRRKFLERNRAAASRCRQKRKVWVQSLEKKAEDLSSLNGQLQSEVTLLRNEVAQLKQLLLAHKDCPVTAMQKKSGYHTADKDDSSEDISVPSSPHTEAIQHSSVSTSNGVSSTSKAEAVATSVLTQMADQSTEPALSQIVMAPSSQSQPSGS
# B9: Cyclin-D1-binding protein 1 (Homo sapiens), O95273 (parent)
# chain: MASATAPAAAVPTLASPLEQLRHLAEELRLLLPRVRVGEAQETTEEFNREMFWRRLNEAAVTVSREATTLTIVFSQLPLPSPQETQKFCEQVHAAIKAFIAVYYLLPKDQGITLRKLVRGATLDIVDGMAQLMEVLSVTPTQSPENNDLISYNSVWVACQQMPQIPRDNKAAALLMLTKNVDFVKDAHEEMEQAVEECDPYSGLLNDTEENNSDNHNHEDDVLGFPSNQDLYWSEDDQELIIPCLALVRASKACLKKIRMLVAENGKKDQVAQLDDIVDISDEISPSVDDLALSIYPPMCHLTVRINSAKLVSVLKKALEITKASHVTPQPEDSWIPLLINAIDHCMNRIKELTQSELEL
# partner: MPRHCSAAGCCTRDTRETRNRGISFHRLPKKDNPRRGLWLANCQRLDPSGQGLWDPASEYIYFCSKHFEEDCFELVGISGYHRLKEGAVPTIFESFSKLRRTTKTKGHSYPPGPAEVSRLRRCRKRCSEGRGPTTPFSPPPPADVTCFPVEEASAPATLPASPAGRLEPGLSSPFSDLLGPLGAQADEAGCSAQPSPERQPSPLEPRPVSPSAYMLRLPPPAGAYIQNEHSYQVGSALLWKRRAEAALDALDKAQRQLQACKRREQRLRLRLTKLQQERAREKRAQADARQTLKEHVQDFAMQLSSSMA
# Variants of: B1
# Settings: with zn446_human ZNF446, Q9NWS9
# Sequence of zn446_human ZNF446, Q9NWS9 (Q9NWS9 whole entry): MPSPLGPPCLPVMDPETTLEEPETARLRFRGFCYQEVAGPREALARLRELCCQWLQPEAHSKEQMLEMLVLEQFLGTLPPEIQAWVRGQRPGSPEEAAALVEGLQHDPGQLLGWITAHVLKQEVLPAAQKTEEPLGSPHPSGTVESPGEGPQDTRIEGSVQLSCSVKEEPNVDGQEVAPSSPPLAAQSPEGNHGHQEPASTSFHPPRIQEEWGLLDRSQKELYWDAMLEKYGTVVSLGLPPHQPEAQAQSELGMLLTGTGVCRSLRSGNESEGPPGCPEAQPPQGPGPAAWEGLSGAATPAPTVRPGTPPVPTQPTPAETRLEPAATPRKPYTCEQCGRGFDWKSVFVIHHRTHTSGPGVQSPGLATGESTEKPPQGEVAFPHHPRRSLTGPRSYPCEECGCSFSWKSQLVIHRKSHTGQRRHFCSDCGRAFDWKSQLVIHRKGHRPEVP
row,Variant,effect of a mutation on the interaction
1,T324I,with no effect

# Variants of: B1
# Settings: with rgs20_human RGS20, O76081
# Sequence of rgs20_human RGS20, O76081 (O76081 whole entry): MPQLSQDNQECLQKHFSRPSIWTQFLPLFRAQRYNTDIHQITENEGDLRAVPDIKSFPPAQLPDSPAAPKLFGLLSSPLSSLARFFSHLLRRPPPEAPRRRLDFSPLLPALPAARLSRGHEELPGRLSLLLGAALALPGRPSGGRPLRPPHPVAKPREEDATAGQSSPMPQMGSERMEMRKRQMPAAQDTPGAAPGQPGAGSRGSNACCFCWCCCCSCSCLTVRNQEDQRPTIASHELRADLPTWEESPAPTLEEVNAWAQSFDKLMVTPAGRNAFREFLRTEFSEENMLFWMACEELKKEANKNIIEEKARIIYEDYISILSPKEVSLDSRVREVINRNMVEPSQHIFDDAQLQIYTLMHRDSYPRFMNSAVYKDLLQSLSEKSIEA
row,Variant,effect of a mutation on the interaction
1,T324I,with no effect

# Variants of: B2
# Settings: with rb27b_human RAB27B
row,Variant,effect of a mutation on the interaction
1,R160H,with no effect

# Variants of: B3
# Settings: with nkg7_human NKG7, Q16617
row,Variant,effect of a mutation on the interaction
1,V113A,with no effect
2,P275A,with no effect
3,P346L,with no effect

# Variants of: B4
# Settings: with taf13_human TAF13, Q15543
row,Variant,effect of a mutation on the interaction
1,A89V,with no effect

# Variants of: B5
# Settings: with cdn2d_human CDKN2D
row,Variant,effect of a mutation on the interaction
1,S52N,with no effect

# Variants of: B6
# Settings: with tri42_human TRIM42, Q8IWZ5
# Sequence of tri42_human TRIM42, Q8IWZ5 (Q8IWZ5 whole entry): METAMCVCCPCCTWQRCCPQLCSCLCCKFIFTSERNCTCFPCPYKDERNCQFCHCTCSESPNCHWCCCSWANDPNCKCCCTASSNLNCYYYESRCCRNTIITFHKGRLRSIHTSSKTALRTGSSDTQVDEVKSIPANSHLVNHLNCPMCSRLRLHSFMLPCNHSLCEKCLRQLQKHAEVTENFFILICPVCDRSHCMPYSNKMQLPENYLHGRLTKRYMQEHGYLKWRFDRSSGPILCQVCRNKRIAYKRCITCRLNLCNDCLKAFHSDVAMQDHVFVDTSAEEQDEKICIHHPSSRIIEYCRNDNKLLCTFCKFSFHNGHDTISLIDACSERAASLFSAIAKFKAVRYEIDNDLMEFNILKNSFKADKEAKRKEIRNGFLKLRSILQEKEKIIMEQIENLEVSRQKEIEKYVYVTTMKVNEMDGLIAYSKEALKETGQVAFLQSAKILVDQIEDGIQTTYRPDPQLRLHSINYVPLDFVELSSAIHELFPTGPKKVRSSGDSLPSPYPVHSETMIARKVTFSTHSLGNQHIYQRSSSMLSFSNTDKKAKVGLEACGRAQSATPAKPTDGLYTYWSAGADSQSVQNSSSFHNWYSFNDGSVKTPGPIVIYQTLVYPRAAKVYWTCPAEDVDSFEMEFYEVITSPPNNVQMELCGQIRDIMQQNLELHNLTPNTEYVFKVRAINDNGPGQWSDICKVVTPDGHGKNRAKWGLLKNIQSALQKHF
row,Variant,effect of a mutation on the interaction
1,A152S,with no effect

# Variants of: B7
# Settings: with prdc1_human PRTFDC1, Q9NRG1
# Sequence of prdc1_human PRTFDC1, Q9NRG1 (Q9NRG1 whole entry): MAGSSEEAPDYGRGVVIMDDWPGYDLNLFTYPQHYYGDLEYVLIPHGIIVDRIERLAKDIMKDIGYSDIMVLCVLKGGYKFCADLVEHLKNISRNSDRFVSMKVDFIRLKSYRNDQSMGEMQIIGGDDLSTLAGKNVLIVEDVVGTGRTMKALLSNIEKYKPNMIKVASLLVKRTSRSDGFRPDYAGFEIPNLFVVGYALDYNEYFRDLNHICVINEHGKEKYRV
row,Variant,effect of a mutation on the interaction
1,S123C,with no effect

# Variants of: B8
# Settings: with jun_human JUN
row,Variant,effect of a mutation on the interaction
1,S456L,with no effect

# Variants of: B9
# Settings: with thap7_human THAP7, Q9BT49
row,Variant,effect of a mutation on the interaction
1,I277T,disrupting interaction strength
